The record followed here is article PMC10325916, “DNA strand asymmetry generated by CpG hemimethylation has opposing effects on CTCF binding”.

Usually Kd stands for a measure of binding affinity in units of concentration.

Values joined by “and” are separate entries in the source; they are usually repeats but may differ in a detail not shown here. Identical values can stand only once.

T1: CTCF ZF1-11 (human, UniProt P49711 266-577)
T1 sequence: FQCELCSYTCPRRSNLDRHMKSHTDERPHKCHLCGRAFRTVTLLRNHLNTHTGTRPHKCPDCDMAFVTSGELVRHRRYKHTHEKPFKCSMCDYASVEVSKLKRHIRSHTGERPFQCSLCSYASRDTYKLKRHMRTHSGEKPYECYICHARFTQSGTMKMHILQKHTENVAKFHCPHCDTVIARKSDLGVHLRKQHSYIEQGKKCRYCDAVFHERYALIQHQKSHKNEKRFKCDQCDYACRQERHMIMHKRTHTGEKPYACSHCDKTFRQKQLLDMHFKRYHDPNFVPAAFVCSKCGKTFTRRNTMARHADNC

T2: CTCF FL (human, UniProt P49711 1-727)
T2 sequence: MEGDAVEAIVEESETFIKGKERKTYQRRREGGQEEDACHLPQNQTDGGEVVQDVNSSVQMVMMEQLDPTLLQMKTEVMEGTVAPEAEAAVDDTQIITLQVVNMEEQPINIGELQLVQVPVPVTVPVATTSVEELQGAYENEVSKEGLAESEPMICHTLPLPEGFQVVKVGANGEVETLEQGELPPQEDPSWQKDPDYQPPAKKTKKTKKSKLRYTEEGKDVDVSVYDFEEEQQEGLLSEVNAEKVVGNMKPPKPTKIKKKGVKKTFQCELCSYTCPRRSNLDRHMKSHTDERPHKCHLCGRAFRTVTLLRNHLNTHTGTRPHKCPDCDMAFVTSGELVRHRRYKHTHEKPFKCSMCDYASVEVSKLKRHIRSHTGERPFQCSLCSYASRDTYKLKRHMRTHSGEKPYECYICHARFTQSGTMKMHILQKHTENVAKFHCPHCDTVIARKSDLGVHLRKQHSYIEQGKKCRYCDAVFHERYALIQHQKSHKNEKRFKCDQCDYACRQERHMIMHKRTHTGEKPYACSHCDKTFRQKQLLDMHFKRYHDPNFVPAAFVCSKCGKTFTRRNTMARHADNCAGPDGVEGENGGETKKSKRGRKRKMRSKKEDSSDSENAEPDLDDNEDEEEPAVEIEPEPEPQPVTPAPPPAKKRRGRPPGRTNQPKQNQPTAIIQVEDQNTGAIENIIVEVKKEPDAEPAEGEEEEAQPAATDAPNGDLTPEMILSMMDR

B1: Negative control (dsDNA)
DNA 1: AAGACGATTCTGGATTGTA
DNA 2: TACAATCCAGAATCGTCTT
B2: H19 unmethylated (dsDNA)
DNA 1: GTTGCCGCGTGGTGGCAG
DNA 2: CTGCCACCACGCGGCAAC
B3: Cen-CTCF motif C12 + opposite C12 5mC (dsDNA)
DNA 1: AGGCCGCCAGAGAGCGCCC
DNA 2: GGGCGCTCTCTGGCGGCCT
modifications: 5mC motif C12 and opposite C12
B4: Cen-CTCF motif C2 5mC (dsDNA)
DNA 1: AGGCCGCCAGAGAGCGCCC
DNA 2: GGGCGCTCTCTGGCGGCCT
modifications: 5mC motif strand C2
B5: Cen-CTCF opposite C2+C12 5mC (dsDNA)
DNA 1: AGGCCGCCAGAGAGCGCCC
DNA 2: GGGCGCTCTCTGGCGGCCT
modifications: 5mC opposite strand C2, C12
B6: Cen-CTCF unmethylated (dsDNA)
DNA 1: AGGCCGCCAGAGAGCGCCC
DNA 2: GGGCGCTCTCTGGCGGCCT
B7: Cen-CTCF motif C12 5mC (dsDNA)
DNA 1: AGGCCGCCAGAGAGCGCCC
DNA 2: GGGCGCTCTCTGGCGGCCT
modifications: 5mC motif strand C12
B8: Cen-CTCF motif C2 + opposite C2 5mC (dsDNA)
DNA 1: AGGCCGCCAGAGAGCGCCC
DNA 2: GGGCGCTCTCTGGCGGCCT
modifications: 5mC motif C2 and opposite C2
B9: H19 motif C2 5mC (dsDNA)
DNA 1: GTTGCCGCGTGGTGGCAG
DNA 2: CTGCCACCACGCGGCAAC
modifications: 5mC motif strand C2
B10: Cen-CTCF motif C2+C12 5mC (dsDNA)
DNA 1: AGGCCGCCAGAGAGCGCCC
DNA 2: GGGCGCTCTCTGGCGGCCT
modifications: 5mC motif strand C2, C12
B11: Cen-CTCF opposite C2 5mC (dsDNA)
DNA 1: AGGCCGCCAGAGAGCGCCC
DNA 2: GGGCGCTCTCTGGCGGCCT
modifications: 5mC opposite strand C2
B12: Cen-CTCF motif C12 + opposite C2 5mC (dsDNA)
DNA 1: AGGCCGCCAGAGAGCGCCC
DNA 2: GGGCGCTCTCTGGCGGCCT
modifications: 5mC motif C12 and opposite C2
B13: Cen-CTCF motif C2 + opposite C12 5mC (dsDNA)
DNA 1: AGGCCGCCAGAGAGCGCCC
DNA 2: GGGCGCTCTCTGGCGGCCT
modifications: 5mC motif C2 and opposite C12
B14: Telo-CTCF (dsDNA)
DNA 1: TCCCCACCAGGGGGAGCAC
DNA 2: GTGCTCCCCCTGGTGGGGA
B15: Cen-CTCF opposite C12 5mC (dsDNA)
DNA 1: AGGCCGCCAGAGAGCGCCC
DNA 2: GGGCGCTCTCTGGCGGCCT
modifications: 5mC opposite strand C12
B16: Cen-CTCF full methylation (dsDNA)
DNA 1: AGGCCGCCAGAGAGCGCCC
DNA 2: GGGCGCTCTCTGGCGGCCT
modifications: 5mC at C2 and C12 CpGs, both strands
B17: H19 full methylation (dsDNA)
DNA 1: GTTGCCGCGTGGTGGCAG
DNA 2: CTGCCACCACGCGGCAAC
modifications: 5mC C2 both strands
B18: H19 opposite C2 5mC (dsDNA)
DNA 1: GTTGCCGCGTGGTGGCAG
DNA 2: CTGCCACCACGCGGCAAC
modifications: 5mC opposite strand C2
B19: Cen-CTCF motif strand 5hmC (dsDNA)
DNA 1: AGGCCGCCAGAGAGCGCCC
DNA 2: GGGCGCTCTCTGGCGGCCT
modifications: 5hmC motif strand
B20: Cen-CTCF full 5hmC (dsDNA)
DNA 1: AGGCCGCCAGAGAGCGCCC
DNA 2: GGGCGCTCTCTGGCGGCCT
modifications: 5hmC at CpGs, both strands
B21: H19 full 5hmC (dsDNA)
DNA 1: GTTGCCGCGTGGTGGCAG
DNA 2: CTGCCACCACGCGGCAAC
modifications: 5hmC C2 both strands
B22: H19 motif strand 5hmC (dsDNA)
DNA 1: GTTGCCGCGTGGTGGCAG
DNA 2: CTGCCACCACGCGGCAAC
modifications: 5hmC motif strand C2

In one data set the target is T1, CTCF ZF1-11. Description: fluorescence polarization; 20 mM Tris-HCl pH 7.5, 300 mM NaCl, 5% glycerol, 0.5 mM TCEP, 25 C, 15 min, 5 nM FAM-oligo. The following applies: protein: recombinant; tags: 6xHis-SUMO, used tagged and untagged (no change in results); label: FAM. (In general: Fluorescence polarisation rises when a labelled molecule tumbles more slowly, as on binding a larger partner.)
In the case of B1, the equilibrium dissociation constant (Kd) was ~1 µM.

Staying with this data set, now noted: protein: recombinant; tags: 6xHis-SUMO, used tagged and untagged (no change in results); label: FAM on motif strand.
On to B2, for which the Kd is 0.149 µM and ~0.2 µM.
For the molecule B3, the Kd was determined as 0.303 ± 0.028 µM.
Consider B4, for which the Kd is 0.949 ± 0.165 µM.
Same read-out and setting: in the case of B5 it was 0.037 ± 0.002 µM; in that of B6, 0.163 µM and ~0.2 µM.
Still for that read-out and setting: in the case of B7 it was 0.428 ± 0.037 µM; in that of B8, 0.799 ± 0.11 µM.
Consider B9, for which the Kd was found to be 0.346 µM.
Same read-out and setting: the result for B10 reads 1.03 ± 0.114 µM; that for B11, 0.081 ± 0.005 µM; that for B12, 0.243 ± 0.018 µM.
As for B13, the dissociation constant Kd was determined as 0.839 ± 0.074 µM.
Still for that read-out and setting: the result for B14 reads ~0.005 µM.
For the molecule B15, the equilibrium dissociation constant (Kd) was determined as 0.077 ± 0.005 µM.
Regarding B16, the Kd was determined as 1.07 ± 0.217 µM.
Turning to B17, the Kd is 0.294 µM.
Same read-out and setting: the result for B18 reads 0.089 µM.

A further data set addresses T2, CTCF FL. The description is as above. Conditions: protein: recombinant; tags: 6xHis-SUMO, used tagged or removed (untagged for FL); label: FAM on motif strand.
Consider B2, for which the dissociation constant (Kd) is ~0.2 µM.
Take B6: the equilibrium dissociation constant (Kd) is ~0.2 µM.
For B14, the dissociation constant (Kd) was ~0.005 µM.

The target of another data set is T1, CTCF ZF1-11. Described as above. Conditions: protein: recombinant; tags: 6xHis-SUMO, used tagged and untagged (no change in results); label: FAM on motif strand.
In the case of B19, the binding signal was ~4 fold lower affinity vs N2.
With B20, the binding signal was ~4 fold lower affinity vs N2.

In the next data set the target is T1, CTCF ZF1-11. The data set is described as above. Conditions: protein: recombinant; tags: 6xHis-SUMO, used tagged and untagged (no change in results); label: FAM on motif strand. The source holds these as a separate data set.
Take B21: the binding signal was ~2 fold lower affinity vs N3.
Consider B22, for which the binding signal is ~2 fold lower affinity vs N3.
